The RNAGym collection of RNA variant scans (doi:10.1093/molbev/msab373)

B1: Azoarcus group I ribozyme (parent)
chain: GUGCCUUGCGCCGGGAAACCACGCAAGGGAUGGUGUCAAAUUCGGCGAAACCUAAGCGCCCGCCCGGGCGUAUGGCAACGCCGAGCCAAGCUUCGGCGCCUGCGCCGAUGAAGGUGUAGAGACUAGACGGCACCCACCUAAGGCAAACGCUAUGGUGAAGGCAUAGUCCAGGGAGUGGCGAAAGUCACACAAACCGG

Variants of: B1
Experiment: reverse-splicing fitness (ratio to wild type); higher = more active; in vitro selection; Mg2+ level not given
Outline: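 An in vitro group I ribozyme library with randomized positions was T7-transcribed and gel-purified. In triplicate, 10 pmol RNA in EPPS pH 7.5 was reacted with 50 pmoles of a 30-nt RNA substrate for 1 h at 37 °C across several added MgCl2 levels (1–48 mM), then stopped with EDTA. Products were reverse transcribed from a substrate-complementary primer, PCR-amplified and sequenced (HiSeq 4000). Fitness is a variant's read proportion after selection over that before, normalised to wild type.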

With GUGCCUUGCGCCGGGAAACCACGCAAGGGAUGGUGUCAAAUUCGGCGAAACCUAAGCGCCCGCCCGGGCGUAUGGCAACGCCGAGCCAAGCUUCGGCGCCUGCGCCGAUGCAGGUGUAGGGACUAGACGGCACCCACCUAAGGCAAACGCUAUGGUGAAGGCAUAGUCAAGGGAGAGGCGAAAGUCACACAAACCGG [A111C A120G C169A U176A] as the variant, how does the reverse-splicing fitness read?
Its reverse-splicing fitness is 0.0221.

Which reverse-splicing fitness does the source give for GUGCCUUGCGCCGGGAAACCACGCAAGGGAUGGUGUCAAAUUCGGCGAAACCUAAGCGCCCGCCCGGGCGUAUGGCAACGCCGAGCCAAGCUUCGGCGCCUGCGCCGAUGCAGGUGUAGGGACUAGACGGCACCCACCUAAGGCAAACGCUAUGGUGAAGGCAUAGUCAAGGGAGCGGCGAAAGUCACACAAACCGG [A111C A120G C169A U176C] here?
Its reverse-splicing fitness is 0.0306.

Which reverse-splicing fitness does the source give for GUGCCUUGCGCCGGGAAACCACGCAAGGGAUGGUGUCAAAUUCGGCGAAACCUAAGCGCCCGCCCGGGCGUAUGGCAACGCCGAGCCAAGCUUCGGCGCCUGCGCCGAUGCAGGUGUAGGGACUAGACGGCACCCACCUAAGGCAAACGCUAUGGUGAAGGCAUAGUCAAGGGAGGGGCGAAAGUCACACAAACCGG [A111C A120G C169A U176G] here?
The reverse-splicing fitness was 0.00418.

Which reverse-splicing fitness does the source give for GUGCCUUGCGCCGGGAAACCACGCAAGGGAUGGUGUCAAAUUCGGCGAAACCUAAGCGCCCGCCCGGGCGUAUGGCAACGCCGAGCCAAGCUUCGGCGCCUGCGCCGAUGCAGGUGUAGGGACUAGACGGCACCCACCUAAGGCAAACGCUAUGGUGAAGGCAUAGUCGAGGGAGUGGCGAAAGUCACACAAACCGG [A111C A120G C169G] here?
The reverse-splicing fitness was 0.22.

Which reverse-splicing fitness does the source give for GUGCCUUGCGCCGGGAAACCACGCAAGGGAUGGUGUCAAAUUCGGCGAAACCUAAGCGCCCGCCCGGGCGUAUGGCAACGCCGAGCCAAGCUUCGGCGCCUGCGCCGAUGCAGGUGUAGGGACUAGACGGCACCCACCUAAGGCAAACGCUAUGGUGAAGGCAUAGUCGAGGGAGAGGCGAAAGUCACACAAACCGG [A111C A120G C169G U176A] here?
The reverse-splicing fitness was 0.0304.

Which reverse-splicing fitness does the source give for GUGCCUUGCGCCGGGAAACCACGCAAGGGAUGGUGUCAAAUUCGGCGAAACCUAAGCGCCCGCCCGGGCGUAUGGCAACGCCGAGCCAAGCUUCGGCGCCUGCGCCGAUGCAGGUGUAGGGACUAGACGGCACCCACCUAAGGCAAACGCUAUGGUGAAGGCAUAGUCGAGGGAGCGGCGAAAGUCACACAAACCGG [A111C A120G C169G U176C] here?
The reverse-splicing fitness was 0.0444.

For GUGCCUUGCGCCGGGAAACCACGCAAGGGAUGGUGUCAAAUUCGGCGAAACCUAAGCGCCCGCCCGGGCGUAUGGCAACGCCGAGCCAAGCUUCGGCGCCUGCGCCGAUGCAGGUGUAGGGACUAGACGGCACCCACCUAAGGCAAACGCUAUGGUGAAGGCAUAGUCGAGGGAGGGGCGAAAGUCACACAAACCGG [A111C A120G C169G U176G], which reverse-splicing fitness is on record?
Its reverse-splicing fitness is 0.00449.

Which reverse-splicing fitness does the source give for GUGCCUUGCGCCGGGAAACCACGCAAGGGAUGGUGUCAAAUUCGGCGAAACCUAAGCGCCCGCCCGGGCGUAUGGCAACGCCGAGCCAAGCUUCGGCGCCUGCGCCGAUGCAGGUGUAGGGACUAGACGGCACCCACCUAAGGCAAACGCUAUGGUGAAGGCAUAGUCUAGGGAGUGGCGAAAGUCACACAAACCGG [A111C A120G C169U] here?
Its reverse-splicing fitness is 0.17.

For GUGCCUUGCGCCGGGAAACCACGCAAGGGAUGGUGUCAAAUUCGGCGAAACCUAAGCGCCCGCCCGGGCGUAUGGCAACGCCGAGCCAAGCUUCGGCGCCUGCGCCGAUGCAGGUGUAGGGACUAGACGGCACCCACCUAAGGCAAACGCUAUGGUGAAGGCAUAGUCUAGGGAGAGGCGAAAGUCACACAAACCGG [A111C A120G C169U U176A], which reverse-splicing fitness is on record?
Its reverse-splicing fitness is 0.0433.

For GUGCCUUGCGCCGGGAAACCACGCAAGGGAUGGUGUCAAAUUCGGCGAAACCUAAGCGCCCGCCCGGGCGUAUGGCAACGCCGAGCCAAGCUUCGGCGCCUGCGCCGAUGCAGGUGUAGGGACUAGACGGCACCCACCUAAGGCAAACGCUAUGGUGAAGGCAUAGUCUAGGGAGCGGCGAAAGUCACACAAACCGG [A111C A120G C169U U176C], which reverse-splicing fitness is on record?
Its reverse-splicing fitness is 0.0498.

For GUGCCUUGCGCCGGGAAACCACGCAAGGGAUGGUGUCAAAUUCGGCGAAACCUAAGCGCCCGCCCGGGCGUAUGGCAACGCCGAGCCAAGCUUCGGCGCCUGCGCCGAUGCAGGUGUAGGGACUAGACGGCACCCACCUAAGGCAAACGCUAUGGUGAAGGCAUAGUCUAGGGAGGGGCGAAAGUCACACAAACCGG [A111C A120G C169U U176G], which reverse-splicing fitness is on record?
Its reverse-splicing fitness is 0.00657.

With GUGCCUUGCGCCGGGAAACCACGCAAGGGAUGGUGUCAAAUUCGGCGAAACCUAAGCGCCCGCCCGGGCGUAUGGCAACGCCGAGCCAAGCUUCGGCGCCUGCGCCGAUGCAGGUGUAGGGACUAGACGGCACCCACCUAAGGCAAACGCUAUGGUGAAGGCAUAGUCCAGGGAGAGGCGAAAGUCACACAAACCGG [A111C A120G U176A] as the variant, how does the reverse-splicing fitness read?
The reverse-splicing fitness was 0.0401.

Which reverse-splicing fitness does the source give for GUGCCUUGCGCCGGGAAACCACGCAAGGGAUGGUGUCAAAUUCGGCGAAACCUAAGCGCCCGCCCGGGCGUAUGGCAACGCCGAGCCAAGCUUCGGCGCCUGCGCCGAUGCAGGUGUAGGGACUAGACGGCACCCACCUAAGGCAAACGCUAUGGUGAAGGCAUAGUCCAGGGAGCGGCGAAAGUCACACAAACCGG [A111C A120G U176C] here?
Its reverse-splicing fitness is 0.0417.

With GUGCCUUGCGCCGGGAAACCACGCAAGGGAUGGUGUCAAAUUCGGCGAAACCUAAGCGCCCGCCCGGGCGUAUGGCAACGCCGAGCCAAGCUUCGGCGCCUGCGCCGAUGCAGGUGUAGGGACUAGACGGCACCCACCUAAGGCAAACGCUAUGGUGAAGGCAUAGUCCAGGGAGGGGCGAAAGUCACACAAACCGG [A111C A120G U176G] as the variant, how does the reverse-splicing fitness read?
The reverse-splicing fitness was 0.00629.

For GUGCCUUGCGCCGGGAAACCACGCAAGGGAUGGUGUCAAAUUCGGCGAAACCUAAGCGCCCGCCCGGGCGUAUGGCAACGCCGAGCCAAGCUUCGGCGCCUGCGCCGAUGCAGGUGUAGUGACUAGACGGCACCCACCUAAGGCAAACGCUAUGGUGAAGGCAUAGUCCAGGGAGUGGCGAAAGUCACACAAACCGG [A111C A120U], which reverse-splicing fitness is on record?
The reverse-splicing fitness was 0.659.
